Assay results published in patent US11319369B2, “Motor control function improving agent” (Kao Corporation, priority 2016, dated 2022).

T1: GIP(3-42) (Homo sapiens, UniProt P09681)
T1 sequence (P09681 54-93): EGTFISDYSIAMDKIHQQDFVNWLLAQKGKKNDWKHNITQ

T2: GIP(1-42) (Homo sapiens, UniProt P09681)
T2 sequence (P09681 52-93): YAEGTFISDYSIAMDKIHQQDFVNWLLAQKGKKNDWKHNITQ


Tests used:
[1] = test system: leptin receptor deficient C57BLKS/J male mice (db/db mice); experiment: Rotarod (motor control function) test after 28-day administration of GIP or GIP-binding anti-GIP antibody; assay type: in vivo, mouse; settings: intraperitoneal daily for 28 days, GIP 5 nmol/kg, anti-GIP antibody 1 mg/kg, rotarod 6-28 rpm, compared to control group, FIG. 2
Procedure: Six-week-old leptin receptor deficient C57BLKS/J male mice (db/db mice, Oriental Yeast Co., Ltd.) were transferred (room temperature: 23° C., humidity: 55±10%, light period: 7:00 to 19:00) and were fed with food and water ad libitum. The food was CE-2 (CLEA Japan, Inc.), and the mice were acclimated for 2 weeks under the above-mentioned environment and were then used for testing.
Mouse-derived GIP (manufactured by AnaSpec, Inc.) was dissolved in physiological saline at a concentration of 500 nM to give a GIP solution. […]
Physiological saline (control group), the GIP solution (5 nmol/kg body weight). […] After administration for 28 days, the motor control function was measured by a rotarod test.
The motor control function (the accommodation ability reflecting balance ability and agility) was evaluated by measuring the capacity of staying on a rod rotating at various speeds using a rotarod (MK-600A, manufactured by Muromachi Kikai Co., Ltd.). Each mouse was placed on a stationary rod, and the number of times of falling was measured with a program of 6 rpm (1 min)→12 rpm (1 min)→16 rpm (1 min)→20 rpm (1 min)→24 rpm (1 min)→28 rpm (1 min). […]

GIP(3-42) = biological target: T1, GIP(3-42); experiment: Sandwich ELISA, cross-reactivity with inactive GIP; assay type: binding; settings: biotinylated antibody 1 μg/mL as detection antibody; GIP 8.2 to 2000 pg/mL; FIG. 1
Procedure: (§1) The reactivity between the monoclonal antibody prepared in Production Example 1 and active GIP was confirmed by ELISA. The amino group of the anti-active GIP monoclonal antibody was biotinylated with NH2 group biotinylation kit (manufactured by Dojindo Laboratories). ELISA was performed using the produced biotinylated anti-active GIP monoclonal antibody at 1 μg/mL instead of a detection antibody, GIP detection antibody (biotinylated anti-total GIP monoclonal antibody), included in Human (total) GIP ELISA kit (manufactured by EMD Millipore Corporation). A […] dilution series of GIP(1-42) or GIP(3-42) was prepared in 6 steps (8.2 to 2000 pg/mL) with a 2000 pg/mL solution as the highest concentration. By using an anti-total GIP monoclonal antibody (included in Human GIP (total) ELISA kit manufactured by EMD Millipore Corporation) as a capture antibody, the biotinylated anti-active GIP monoclonal antibody as a detection antibody, and a peroxidase-streptavidin conjugate for detection, sandwich ELISA was conducted to prepare a calibration curve with GIP concentration on the X-axis and 450 nm-590 nm absorbance on the Y-axis (FIG. 1).

[2] = biological target: T3, PEGylated N-terminus 13 amino acids of inactive GIP (GIP(3-15)) (Homo sapiens, UniProt P09681); experiment: Hybridoma screening ELISA with immobilized antigen (2); assay type: binding; settings: hybridoma culture supernatant
T3 construct: made in house; host or cells: synthetic peptide (no expression host)
Procedure: (§2) Polyethylene glycol was added to N-terminus 15 amino acids of active GIP (GIP(1-15)) (PEGylation (polyethylene glycolation)), and keyhole limpet hemocyanin (KLH) was then chemically bonded thereto to produce KLH-linked PEGylated GIP (1-15) as an immunogen.
(§3) The reaction between the hybridoma culture supernatant and the antigen (1) and (2) for measurement was evaluated by ELISA using immobilized antigen (1) and (2), and hybridomas that are positive for the antigen (1) and negative for the antigen (2) were selected as anti-active GIP monoclonal antibody-producing hybridomas.
(§4) Antibody-producing hybridoma was cloned by culturing the hybridomas obtained above through a limiting dilution method to obtain single colonies, and single colony-forming wells were subjected to ELISA again to establish 9B9H5-B9 line, which produces an antibody that is positive for the antigen (1) and negative for the antigen (2) (WO 2016/104439).

[3] = test system: aged C57BL/6J male mice (115-week-old); experiment: Rotarod (motor control function) test in aged mice given anti-GIP antibody; assay type: in vivo, mouse; settings: C57BL/6J mice, 0.5 mg/kg intraperitoneal once a week, tested at 115-week-old, FIG. 4
Procedure: Four-week-old C57BL/6J male mice (CLEA Japan, Inc.) were transferred (room temperature: 23° C., humidity: 55±10%, light period: 7:00 to 19:00) and were fed with food (D12450K, Research Diets, Inc.) and water ad libitum for 111 weeks.
The anti-active GIP antibody produced in Production Example 1 was dissolved in physiological saline at a concentration of 0.05 mg/mL to give an anti-GIP antibody solution.
Physiological saline (control group) or the anti-GIP antibody solution (0.5 mg/kg body weight) (anti-GIP antibody administration group) was intraperitoneally administered to C57BL/6J mice (107-week-old) once a week (9:00 to 10:00 a.m.), 8 times (8 weeks) in total.
The motor control function (the accommodation ability reflecting balance ability and agility) was evaluated by measuring the capacity of staying on a rod rotating at various speeds using a rotarod (MK-600A, manufactured by Muromachi Kikai Co., Ltd.). The test was performed for 50-week-old mice (non-administration group) and 115-week-old mice (non-administration group, control group, and anti-GIP antibody administration group). Each mouse was placed on a stationary rod, and the number of times of falling was measured with a program of 6 rpm (1 min)→12 rpm (1 min)→16 rpm (1 min)→20 rpm (1 min)→24 rpm (1 min)→28 rpm (1 min).
The analysis results were shown as the average value (Ave.)±standard error (SE). […]

[4] = biological target: T4, PEGylated N-terminus 15 amino acids of active GIP (GIP(1-15)) (Homo sapiens, UniProt P09681); experiment: Hybridoma screening ELISA with immobilized antigen (1); assay type: binding; settings: hybridoma culture supernatant
T4 construct: PEGylated N-terminus 15 amino acids of active GIP (GIP(1-15)) was used as an antigen (1) for measurement; made in house; host or cells: synthetic peptide (no expression host)
Procedure: as §2, §3, §4

GIP(1-42) = biological target: T2, GIP(1-42); experiment: Sandwich ELISA, reactivity with active GIP; assay type: binding; settings: biotinylated antibody 1 μg/mL as detection antibody; GIP 8.2 to 2000 pg/mL; FIG. 1
Procedure: as §1

| Molecule | decrease in the motor control function (increase in the number of times of falling with an increase of the rotation speed) [1] | cross-reactivity with GIP(3-42) (450 nm-590 nm absorbance) (GIP(3-42)) | ELISA reaction with antigen (2) [2] | motor control function (number of times of falling) compared to non-administration and control 115-week-old groups ([3]; 8 times from 107-week-old, rotarod 6-28 rpm) | motor control function relative to the non-administration (50-week-old) group ([3]; 8 times) | ELISA reaction with antigen (1) [4] | reactivity with GIP(1-42) (450 nm-590 nm absorbance) (GIP(1-42)) |
| --- | --- | --- | --- | --- | --- | --- | --- |
| GIP: Mouse-derived GIP (manufactured by AnaSpec, Inc.), gastric inhibitory polypeptide, dissolved in physiological saline at 500 nM (YAEGTFISDYSIAMDKIRQQDFVNWLLAQRGKKSDWKHNITQ) | significant decrease |  |  |  |  |  |  |
| monoclonal antibody prepared in Production Example 1: Mouse monoclonal anti-active GIP antibody produced by hybridoma 9B9H5-B9 line; H-chain variable region SEQ ID NO: 2, L-chain variable region SEQ … (antibody, listed as Mus musculus, V domains shown) VH: QVQLQQPGAELVKPGASVKLSCKASGYTFTSFWMHWVIQRPGQGLEWIGEMNPSDGRTHFNEKFKTKATLTIDTSSNTAYMELNSLTSEDSAVYYCARRMEDWGQGTLVTVSA VL: DIKMTQSPSSMYASLGERVTITCKASQDINSYLGWFQQKPGKSPKTLIYGANRLVDGVPSRFSGSGSGQDYSLTISSLEYDDMGIYYCLQYDEFPLTFGAGTKLELKR |  | does not show cross-reactivity | negative | improvement in the motor control function was observed | equivalent to that of the non-administration (50-week-old) group | positive | capable of specifically detecting GIP(1-42) |
